From patent US20130005646A1 (Novo Nordisk, published 2013)
One block for each binder: values may come before it. Starred links: 1 amine or outer side, 2 acyl side, 3 side chain; linkers in the order of their positions; H or OH if unused. Positions of bridges follow the written chain, without caps; N, C: chain ends. *: point of attachment. C20 diacid = O=C(O)CCCCCCCCCCCCCCCCCCC(=O)*; γGlu = O=C(O)[C@H](CCC(=O)[*:2])N[*:1]

What was measured:
Experiment in all cases: cell-based or functional assay
[1] = target: T1, human amylin 3(a) receptor (human calcitonin receptor + RAMP-3) (human, UniProt P30988 25-474; O60896 24-148)
T1 sequence (looked up) 1: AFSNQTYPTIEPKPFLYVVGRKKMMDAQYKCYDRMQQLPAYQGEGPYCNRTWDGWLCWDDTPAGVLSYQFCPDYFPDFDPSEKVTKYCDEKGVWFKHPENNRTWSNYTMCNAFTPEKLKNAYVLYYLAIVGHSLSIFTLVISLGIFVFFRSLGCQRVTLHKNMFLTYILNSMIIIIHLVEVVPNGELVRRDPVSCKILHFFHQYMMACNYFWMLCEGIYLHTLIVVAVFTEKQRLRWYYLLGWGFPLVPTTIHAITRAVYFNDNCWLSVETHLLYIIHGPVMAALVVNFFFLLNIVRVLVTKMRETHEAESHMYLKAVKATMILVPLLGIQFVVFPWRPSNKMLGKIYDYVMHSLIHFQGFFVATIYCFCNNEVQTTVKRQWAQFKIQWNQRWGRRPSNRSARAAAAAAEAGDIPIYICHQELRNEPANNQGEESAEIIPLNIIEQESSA
T1 sequence (looked up) 2: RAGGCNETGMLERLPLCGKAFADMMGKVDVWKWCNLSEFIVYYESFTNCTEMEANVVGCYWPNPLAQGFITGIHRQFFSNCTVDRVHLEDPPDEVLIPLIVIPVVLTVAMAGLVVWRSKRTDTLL

[2] = target: T2, human calcitonin (a) receptor (human, UniProt P30988 25-474)
T2 sequence (looked up): T1 sequence (looked up) 1

[3] = target: T3, rat amylin 3(a) receptor (rat calcitonin(a) receptor + rat RAMP3) (rat, UniProt P32214 25-516; Q9JJ73 23-147)
T3 sequence (looked up) 1: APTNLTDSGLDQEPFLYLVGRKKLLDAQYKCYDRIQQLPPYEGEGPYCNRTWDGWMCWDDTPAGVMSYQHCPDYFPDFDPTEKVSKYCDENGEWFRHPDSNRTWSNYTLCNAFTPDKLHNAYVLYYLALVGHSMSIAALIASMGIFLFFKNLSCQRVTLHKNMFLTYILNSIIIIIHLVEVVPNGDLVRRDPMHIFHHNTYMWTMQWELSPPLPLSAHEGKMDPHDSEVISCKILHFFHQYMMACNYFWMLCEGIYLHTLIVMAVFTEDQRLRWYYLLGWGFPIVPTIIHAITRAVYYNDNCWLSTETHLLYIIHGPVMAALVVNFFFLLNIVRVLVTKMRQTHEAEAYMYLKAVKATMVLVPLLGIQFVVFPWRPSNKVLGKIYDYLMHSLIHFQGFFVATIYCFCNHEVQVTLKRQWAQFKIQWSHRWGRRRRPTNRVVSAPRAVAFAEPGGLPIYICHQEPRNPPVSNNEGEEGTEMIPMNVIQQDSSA
T3 sequence (looked up) 2: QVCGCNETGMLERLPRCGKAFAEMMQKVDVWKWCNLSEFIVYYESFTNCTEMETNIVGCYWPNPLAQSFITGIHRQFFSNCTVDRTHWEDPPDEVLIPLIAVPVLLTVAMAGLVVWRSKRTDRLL

[4] = target: T4, rat calcitonin (a) receptor (rat, UniProt P32214 25-516)
T4 sequence (looked up): T3 sequence (looked up) 1

Amylin receptor human EC50 [1]: 0.0985 nM
CTa receptor human EC50 [2]: 0.157 nM
Amylin receptor rat EC50 [3]: 0.261 nM
CTa receptor rat EC50 [4]: 1.29 nM
B1: N-alpha-[(S)-4-Carboxy-4-(19-carboxynonadecanoylamino)butyryl]-His-His-[His1,Arg3,Glu14,His17]-pramlintide (peptide)
peptide: {C20 diacid-γGlu}-HHHCRTATCATQRLAEFLHHSSNNFGPILPPTNVGSNTY-NH2
modifications: disulfide 4-9
SMILES: CC[C@H](C)[C@H](NC(=O)[C@@H]1CCCN1C(=O)CNC(=O)[C@H](Cc1ccccc1)NC(=O)[C@H](CC(N)=O)NC(=O)[C@H](CC(N)=O)NC(=O)[C@H](CO)NC(=O)[C@H](CO)NC(=O)[C@H](Cc1c[nH]cn1)NC(=O)[C@H](Cc1c[nH]cn1)NC(=O)[C@H](CC(C)C)NC(=O)[C@H](Cc1ccccc1)NC(=O)[C@H](CCC(=O)O)NC(=O)[C@H](C)NC(=O)[C@H](CC(C)C)NC(=O)[C@H](CCCNC(=N)N)NC(=O)[C@H](CCC(N)=O)NC(=O)[C@@H](NC(=O)[C@H](C)NC(=O)[C@@H]1CSSC[C@H](NC(=O)[C@H](Cc2c[nH]cn2)NC(=O)[C@H](Cc2c[nH]cn2)NC(=O)[C@H](Cc2c[nH]cn2)NC(=O)CC[C@H](NC(=O)CCCCCCCCCCCCCCCCCCC(=O)O)C(=O)O)C(=O)N[C@@H](CCCNC(=N)N)C(=O)N[C@@H]([C@@H](C)O)C(=O)N[C@@H](C)C(=O)N[C@@H]([C@@H](C)O)C(=O)N1)[C@@H](C)O)C(=O)N[C@@H](CC(C)C)C(=O)N1CCC[C@H]1C(=O)N1CCC[C@H]1C(=O)N[C@H](C(=O)N[C@@H](CC(N)=O)C(=O)N[C@H](C(=O)NCC(=O)N[C@@H](CO)C(=O)N[C@@H](CC(N)=O)C(=O)N[C@H](C(=O)N[C@@H](Cc1ccc(O)cc1)C(N)=O)[C@@H](C)O)C(C)C)[C@@H](C)O

Amylin receptor human EC50 [1]: 0.192 nM
CTa receptor human EC50 [2]: 0.429 nM
Amylin receptor rat EC50 [3]: 0.133 nM
CTa receptor rat EC50 [4]: 1.34 nM
B2: N-alpha-[(S)-4-Carboxy-4-(19-carboxynonadecanoylamino)butyryl]-His-His-[His1,Glu14,His17,Arg35]-pramlintide (peptide)
peptide: {C20 diacid-γGlu}-HHHCNTATCATQRLAEFLHHSSNNFGPILPPTNVGSRTY-NH2
modifications: disulfide 4-9
SMILES: CC[C@H](C)[C@H](NC(=O)[C@@H]1CCCN1C(=O)CNC(=O)[C@H](Cc1ccccc1)NC(=O)[C@H](CC(N)=O)NC(=O)[C@H](CC(N)=O)NC(=O)[C@H](CO)NC(=O)[C@H](CO)NC(=O)[C@H](Cc1c[nH]cn1)NC(=O)[C@H](Cc1c[nH]cn1)NC(=O)[C@H](CC(C)C)NC(=O)[C@H](Cc1ccccc1)NC(=O)[C@H](CCC(=O)O)NC(=O)[C@H](C)NC(=O)[C@H](CC(C)C)NC(=O)[C@H](CCCNC(=N)N)NC(=O)[C@H](CCC(N)=O)NC(=O)[C@@H](NC(=O)[C@H](C)NC(=O)[C@@H]1CSSC[C@H](NC(=O)[C@H](Cc2c[nH]cn2)NC(=O)[C@H](Cc2c[nH]cn2)NC(=O)[C@H](Cc2c[nH]cn2)NC(=O)CC[C@H](NC(=O)CCCCCCCCCCCCCCCCCCC(=O)O)C(=O)O)C(=O)N[C@@H](CC(N)=O)C(=O)N[C@@H]([C@@H](C)O)C(=O)N[C@@H](C)C(=O)N[C@@H]([C@@H](C)O)C(=O)N1)[C@@H](C)O)C(=O)N[C@@H](CC(C)C)C(=O)N1CCC[C@H]1C(=O)N1CCC[C@H]1C(=O)N[C@H](C(=O)N[C@@H](CC(N)=O)C(=O)N[C@H](C(=O)NCC(=O)N[C@@H](CO)C(=O)N[C@@H](CCCNC(=N)N)C(=O)N[C@H](C(=O)N[C@@H](Cc1ccc(O)cc1)C(N)=O)[C@@H](C)O)C(C)C)[C@@H](C)O

Amylin receptor human EC50 [1]: 0.105 nM
CTa receptor human EC50 [2]: 0.31 nM
Amylin receptor rat EC50 [3]: 0.132 nM
CTa receptor rat EC50 [4]: 0.824 nM
B3: N-alpha-[(S)-4-Carboxy-4-(19-carboxynonadecanoylamino)butyryl]-His-His-[His1,Glu14,His17,Ala25,Pro26,Ser28,Ser29]-pramlintide (peptide)
peptide: {C20 diacid-γGlu}-HHHCNTATCATQRLAEFLHHSSNNFGAPLSSTNVGSNTY-NH2
modifications: disulfide 4-9
SMILES: CC(C)C[C@H](NC(=O)[C@H](CCCNC(=N)N)NC(=O)[C@H](CCC(N)=O)NC(=O)[C@@H](NC(=O)[C@H](C)NC(=O)[C@@H]1CSSC[C@H](NC(=O)[C@H](Cc2c[nH]cn2)NC(=O)[C@H](Cc2c[nH]cn2)NC(=O)[C@H](Cc2c[nH]cn2)NC(=O)CC[C@H](NC(=O)CCCCCCCCCCCCCCCCCCC(=O)O)C(=O)O)C(=O)N[C@@H](CC(N)=O)C(=O)N[C@@H]([C@@H](C)O)C(=O)N[C@@H](C)C(=O)N[C@@H]([C@@H](C)O)C(=O)N1)[C@@H](C)O)C(=O)N[C@@H](C)C(=O)N[C@@H](CCC(=O)O)C(=O)N[C@@H](Cc1ccccc1)C(=O)N[C@@H](CC(C)C)C(=O)N[C@@H](Cc1c[nH]cn1)C(=O)N[C@@H](Cc1c[nH]cn1)C(=O)N[C@@H](CO)C(=O)N[C@@H](CO)C(=O)N[C@@H](CC(N)=O)C(=O)N[C@@H](CC(N)=O)C(=O)N[C@@H](Cc1ccccc1)C(=O)NCC(=O)N[C@@H](C)C(=O)N1CCC[C@H]1C(=O)N[C@@H](CC(C)C)C(=O)N[C@@H](CO)C(=O)N[C@@H](CO)C(=O)N[C@H](C(=O)N[C@@H](CC(N)=O)C(=O)N[C@H](C(=O)NCC(=O)N[C@@H](CO)C(=O)N[C@@H](CC(N)=O)C(=O)N[C@H](C(=O)N[C@@H](Cc1ccc(O)cc1)C(N)=O)[C@@H](C)O)C(C)C)[C@@H](C)O

Amylin receptor human EC50 [1]: 0.131 nM
CTa receptor human EC50 [2]: 0.126 nM
Amylin receptor rat EC50 [3]: 0.187 nM
CTa receptor rat EC50 [4]: 1.17 nM
B4: N-alpha-[(S)-4-Carboxy-4-(19-carboxynonadecanoylamino)butyryl]-[His1,Glu14,His17]-pramlintide (peptide)
peptide: {C20 diacid-γGlu}-HCNTATCATQRLAEFLHHSSNNFGPILPPTNVGSNTY-NH2
modifications: disulfide 2-7; not fully specified; printed as N-alpha-[(S)-4-Carboxy-4-(19-carboxynonadecanoylamino)butyryl]-[His1,Glu14,His17]-pramlintide

Amylin receptor human EC50 [1]: 0.111 nM
CTa receptor human EC50 [2]: 0.166 nM
Amylin receptor rat EC50 [3]: 0.147 nM
CTa receptor rat EC50 [4]: 0.221 nM
B5: N-alpha-[(S)-4-Carboxy-4-(19-carboxynonadecanoylamino)butyryl]-His-[His1,Glu14,His17]-pramlintide (peptide)
peptide: {C20 diacid-γGlu}-HHCNTATCATQRLAEFLHHSSNNFGPILPPTNVGSNTY-NH2
modifications: disulfide 3-8
SMILES: CC[C@H](C)[C@H](NC(=O)[C@@H]1CCCN1C(=O)CNC(=O)[C@H](Cc1ccccc1)NC(=O)[C@H](CC(N)=O)NC(=O)[C@H](CC(N)=O)NC(=O)[C@H](CO)NC(=O)[C@H](CO)NC(=O)[C@H](Cc1c[nH]cn1)NC(=O)[C@H](Cc1c[nH]cn1)NC(=O)[C@H](CC(C)C)NC(=O)[C@H](Cc1ccccc1)NC(=O)[C@H](CCC(=O)O)NC(=O)[C@H](C)NC(=O)[C@H](CC(C)C)NC(=O)[C@H](CCCNC(=N)N)NC(=O)[C@H](CCC(N)=O)NC(=O)[C@@H](NC(=O)[C@H](C)NC(=O)[C@@H]1CSSC[C@H](NC(=O)[C@H](Cc2c[nH]cn2)NC(=O)[C@H](Cc2c[nH]cn2)NC(=O)CC[C@H](NC(=O)CCCCCCCCCCCCCCCCCCC(=O)O)C(=O)O)C(=O)N[C@@H](CC(N)=O)C(=O)N[C@@H]([C@@H](C)O)C(=O)N[C@@H](C)C(=O)N[C@@H]([C@@H](C)O)C(=O)N1)[C@@H](C)O)C(=O)N[C@@H](CC(C)C)C(=O)N1CCC[C@H]1C(=O)N1CCC[C@H]1C(=O)N[C@H](C(=O)N[C@@H](CC(N)=O)C(=O)N[C@H](C(=O)NCC(=O)N[C@@H](CO)C(=O)N[C@@H](CC(N)=O)C(=O)N[C@H](C(=O)N[C@@H](Cc1ccc(O)cc1)C(N)=O)[C@@H](C)O)C(C)C)[C@@H](C)O
